Assay results as given in patent US20130059772A1, “Use of Repeat Sequence Protein Polymers in Personal Care Compositions” (DANISCO US INC., priority 2003, published 2013).

How the values were obtained:
[1] = Isoelectric point determination (IEF gel); assay type: physicochemical; conditions: stated in production example
Experimental: In this Example, experiments performed to determine the isoelectric point and cloud point of SELP47K (Example 1) are described. The isoelectric point of SELP47K was determined by electrophoresing 5 mg/ml SELP47K solution using Isoelectric Focusing Electrophoresis (IEF) gel and Novex electrophoresis apparatus along with protein standards markers.

[2] = test system: cultured dermal fibroblasts; assay: UVB protection, follow-up MTT assay (pretreatment protocols); assay type: cell-based, human; conditions: UVB control 79 ± 19
Experimental: (§1) Two sets of duplicate cells were prepared using the four treatment protocols outlined in Table 24. One set of cells was used for an MTT assay while the other set of cells was used to measure the formation of ROS using the fluorescent DCF dye indicator.
(§2) For this follow up study, the material was tested at concentrations of 0.14% and 0.014%. During the pretreatment phase, the test material was diluted in FGM (for treatments 1 and 2). […] For the MTT assay, cells that were not exposed to UVB or treated with test materials were used to represent 100% cell viability.

[3] = test system: reactive oxygen species (ROS); assay: Fluorescent DCF dye assay after UVB; assay type: cell-based, human; conditions: No UVB 0.031, UVB 0.057
Experimental: Therefore, the aim of the follow-up study, was to determine if treatment with the test material before or during UVB exposure provided any additional survival benefit(s). Four different treatment regiments were employed using different combinations of pretreatment with the test material prior to UVB exposure and treatment with the material during UVB exposure. Cell survival was again assessed via an MTT assay 48 hours after the UVB insult. In addition, this second study also incorporated the use of 2′,7′-dichloro-dihydrofluorescein diacetate (DCF), which is a relatively non-fluorescent dye that can be loaded into cells and becomes fluorescent upon exposure to the reactive oxygen species (ROS) generated during UVB exposure (Carini et al., Il Farmaco 55:526-534 [2000]; and Chan et al., J. Cell. Biochem., 90:327-338 [2003]). The diacetate form of the dye can freely traverse cell membranes, however once inside of the cell intracellular esterases will cleave off the acetate side groups trapping the DCF dye within the cell.
as §1, §2
One hour prior to UVB exposure, the cell culture media were removed and the wells were washed with PBS to remove any residual RSPP test material in the set of cells used for the DCF assay. A 20 mM stock of DCF prepared in DMSO was diluted to 10 μM using PBS and 100 μl of this solution were added to each well. The plate was then returned to the incubator for 1 hour, to allow sufficient time for the cells to take up and trap the dye. After the 1-hour incubation, the cells were washed with PBS to remove any unincorporated dye and then exposed to UVB using the protocol described above. Forty-eight hours later, the 96-well plate was read using a fluorometer set for an excitation wavelength of 485 nm and an emission wavelength of 518 nm. The duplicate set of wells run for the MTT assay served as non-dye loaded blanks to account for any background fluorescence due to the cells or the test material.
The mean fluorescence intensity was determined for each of the treatment groups (measured in relative fluorescence units or “RFU”).

[4] = test system: Fibroblasts (HDFn Cell Line); assay: MTT assay (second cell viability assay); conditions: 48 hours
From the text: The purple crystals are extracted from the cells with isopropanol and the amount of crystal formation quantified spectrophotometrically. The intensity of the purple color is directly proportional to the metabolic activity of the cultured cells, which normally is used as an indication of an increase in the number of viable cells, although it can also indicate an increase in the mitochondrial content of the existing cells (Alley et al., Cancer Res., 48:589-601 1988). A decrease in color intensity can be a sign of toxicity.
Fibroblasts (Cascade Biologics, HDFn Cell Line, lot#1C0914) were seeded into the individual wells of either a 96-well plate (for the initial pilot work to determine concentration effects on cell viability) in 100 μl of Fibroblast Growth Media (FGM) or in 12-well plates (for the measurement of collagen, elastin and MMP-1) in 1.0 ml of FGM and incubated overnight at 37±2° C. and 5±1% CO2. On the following day, the medium was removed via aspiration to eliminate any non-adherent cells and replaced with fresh FGM. The cells were grown until confluent, with a media change every 48 to 72 hours. Upon reaching confluency, the cells were treated for 24 hours with Dulbecco's Modified Essential Media (DMEM) supplemented with 1.5% FBS to wash out any effects from the growth factors included in the normal FGM. After this 24-hour wash out period, the cells were treated with the test materials at the specified concentrations dissolved in DMEM with 1.5% FBS. […]
After the 2-day incubation, the cell culture medium was removed and the fibroblasts were washed twice with PBS to remove any remaining test material. […] The 96-well plates were read at 540 nm using isopropyl alcohol as a blank. The mean MTT absorbance value for the negative control cells was calculated and used to represent 100% value for cell viability. The individual MTT values from the cells undergoing the various treatments were then divided by the mean value for the negative control cells and expressed as a percent, to determine the change in cell viability caused by each treatment.

[5] = T1 (24 hour pretreatment, absent during UVB, present 48 hours after) 0.014%
[6] = T1 (24 hour pretreatment, absent during UVB, present 48 hours after) 0.14%
[7] = T2 (24 hour pretreatment, present during UVB and 48 hours after) 0.014%
[8] = T2 (24 hour pretreatment, present during UVB and 48 hours after) 0.14%
[9] = T3 (present only 48 hours after UVB) 0.014%
[10] = T3 (present only 48 hours after UVB) 0.14%
[11] = T4 (no pretreatment, present during UVB and 48 hours after) 0.014%
[12] = T4 (no pretreatment, present during UVB and 48 hours after) 0.14%

B1: GC2596-26-E: collagen-like repeat sequence protein polymer, head-[(GAHGPAGPK)2(GAQGPAGPG)24(GAHGPAGPK)2]4-tail; SEQ ID NO:34 (Example 5) (protein)
chain: MDPVVLQRRDWENPGVTQLNRLAAHPPFASDPMGAHGPAGPKGAHGPAGPKGAQGPAGPGGAQGPAGPGGAQGPAGPGGAQGPAGPGGAQGPAGPGGAQGPAGPGGAQGPAGPGGAQGPAGPGGAQGPAGPGGAQGPAGPGGAQGPAGPGGAQGPAGPGGAQGPAGPGGAQGPAGPGGAQGPAGPGGAQGPAGPGGAQGPAGPGGAQGPAGPGGAQGPAGPGGAQGPAGPGGAQGPAGPGGAQGPAGPGGAQGPAGPGGAQGPAGPGGAHGPAGPKGAHGPAGPKGAHGPAGPKGAHGPAGPKGAQGPAGPGGAQGPAGPGGAQGPAGPGGAQGPAGPGGAQGPAGPGGAQGPAGPGGAQGPAGPGGAQGPAGPGGAQGPAGPGGAQGPAGPGGAQGPAGPGGAQGPAGPGGAQGPAGPGGAQGPAGPGGAQGPAGPGGAQGPAGPGGAQGPAGPGGAQGPAGPGGAQGPAGPGGAQGPAGPGGAQGPAGPGGAQGPAGPGGAQGPAGPGGAQGPAGPGGAHGPAGPKGAHGPAGPKGAHGPAGPKGAHGPAGPKGAQGPAGPGGAQGPAGPGGAQGPAGPGGAQGPAGPGGAQGPAGPGGAQGPAGPGGAQGPAGPGGAQGPAGPGGAQGPAGPGGAQGPAGPGGAQGPAGPGGAQGPAGPGGAQGPAGPGGAQGPAGPGGAQGPAGPGGAQGPAGPGGAQGPAGPGGAQGPAGPGGAQGPAGPGGAQGPAGPGGAQGPAGPGGAQGPAGPGGAQGPAGPGGAQGPAGPGGAHGPAGPKGAHGPAGPKGAHGPAGPKGAHGPAGPKGAQGPAGPGGAQGPAGPGGAQGPAGPGGAQGPAGPGGAQGPAGPGGAQGPAGPGGAQGPAGPGGAQGPAGPGGAQGPAGPGGAQGPAGPGGAQGPAGPGGAQGPAGPGGAQGPAGPGGAQGPAGPGGAQGPAGPGGAQGPAGPGGAQGPAGPGGAQGPAGPGGAQGPAGPGGAQGPAGPGGAQGPAGPGGAQGPAGPGGAQGPAGPGGAQGPAGPGGAHGPAGPKGAHGPAGPKMDPGRYQLSAGRYHYQLVWCQK
modifications: silk-elastin repeat sequence protein copolymer
With B1 the “pI of the protein” value [1] was 11.18.

B2: GC2596-26-D: SELP47K modified with two units of ALSYP (SEQ ID NO:36) peptides in each SELP47K unit; SEQ ID NO:32 (Example 4) (protein)
chain: MDPVVLQRRDWENPGVTQLNRLAAHPPFASDPMGAGAGSGAGAGSALSYPGVGVPGVGVPGVGVPGVGVPGKGVPGVGVPGVGVPGVGVPALSYPGAGAGSGAGAGSGAGAGSGAGAGSALSYPGVGVPGVGVPGVGVPGVGVPGKGVPGVGVPGVGVPGVGVPALSYPGAGAGSGAGAGSGAGAGSGAGAGSALSYPGVGVPGVGVPGVGVPGVGVPGKGVPGVGVPGVGVPGVGVPALSYPGAGAGSGAGAGSGAGAGSGAGAGSALSYPGVGVPGVGVPGVGVPGVGVPGKGVPGVGVPGVGVPGVGVPALSYPGAGAGSGAGAGSGAGAGSGAGAGSALSYPGVGVPGVGVPGVGVPGVGVPGKGVPGVGVPGVGVPGVGVPALSYPGAGAGSGAGAGSGAGAGSGAGAGSALSYPGVGVPGVGVPGVGVPGVGVPGKGVPGVGVPGVGVPGVGVPALSYPGAGAGSGAGAGSGAGAGSGAGAGSALSYPGVGVPGVGVPGVGVPGVGVPGKGVPGVGVPGVGVPGVGVPALSYPGAGAGSGAGAGSGAGAGSGAGAGSALSYPGVGVPGVGVPGVGVPGVGVPGKGVPGVGVPGVGVPGVGVPALSYPGAGAGSGAGAGSGAGAGSGAGAGSALSYPGVGVPGVGVPGVGVPGVGVPGKGVPGVGVPGVGVPGVGVPALSYPGAGAGSGAGAGSGAGAGSGAGAGSALSYPGVGVPGVGVPGVGVPGVGVPGKGVPGVGVPGVGVPGVGVPALSYPGAGAGSGAGAGSGAGAGSGAGAGSALSYPGVGVPGVGVPGVGVPGVGVPGKGVPGVGVPGVGVPGVGVPALSYPGAGAGSGAGAGSGAGAGSGAGAGSALSYPGVGVPGVGVPGVGVPGVGVPGKGVPGVGVPGVGVPGVGVPALSYPGAGAGSGAGAGSGAGAGSGAGAGSALSYPGVGVPGVGVPGVGVPGVGVPGKGVPGVGVPGVGVPGVGVPALSYPGAGAGSGAGAGSGAGAMDPGRYQDLRSHHHHHH
modifications: SELP 47K-P4
With B2 the “Percent Viability” value [2, 5] was 85 ± 7%, the “Percent Viability” value [2, 6] was 122 ± 20% and the “Percent Viability” value [2, 7] was 78 ± 4%. For the same molecule, the “Percent Viability” value [2, 8] was 126 ± 25%, the “Percent Viability” value [2, 9] was 88% and the “Percent Viability” value [2, 10] was 97 ± 14%. The “Percent Viability” value ([2]; T3 (present only 48 hours after UVB) 0.14%, listed as 2596-26-D) was roughly 100%, the “Percent Viability” value [2, 11] was 86 ± 6% and the “Percent Viability” value [2, 12] was 121 ± 19%. The RFU/Viability [3, 5] was 0.038, the RFU/Viability [3, 6] was 0.038 and the RFU/Viability [3, 7] was 0.035. For the same molecule, the RFU/Viability [3, 8] was 0.032, the RFU/Viability [3, 9] was 0.053 and the RFU/Viability [3, 10] was 0.039. The RFU/Viability [3, 11] was 0.052, the RFU/Viability [3, 12] was 0.026 and the “Percent Viability” value ([4]; 0.0014%) was 100 ± 3%. The “Percent Viability” value ([4]; 0.007%) was 103 ± 2% and the “Percent Viability” value ([4]; 0.014%) was 106 ± 5%.
